Publication PMC2756588

What was measured:
Assay in all cases: SPOT array
Bem1-2, P29366 = conditions: median of control spots 4347
Bud14, P27637 = biological target: T1, Bud14, P27637; conditions: median of control spots 956
T1 sequence (P27637 247-328, looked up): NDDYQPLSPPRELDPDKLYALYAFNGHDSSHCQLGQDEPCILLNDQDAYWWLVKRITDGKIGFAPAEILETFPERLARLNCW

Boi2, P39969 = biological target: T2, Boi2, P39969; conditions: median of control spots 1161
T2 sequence (P39969 32-116, looked up): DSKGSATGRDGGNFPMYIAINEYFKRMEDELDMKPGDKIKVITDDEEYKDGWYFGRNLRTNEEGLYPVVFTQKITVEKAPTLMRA

Sho1, P40073 = conditions: median of control spots 1148
Chain of Sho1, P40073 (P40073 287-367): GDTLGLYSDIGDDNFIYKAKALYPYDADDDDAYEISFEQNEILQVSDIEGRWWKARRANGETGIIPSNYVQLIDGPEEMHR

Hof1, Q05080 = biological target: T3, Hof1, Q05080; conditions: median of control spots 4086
T3 sequence (Q05080 590-669, looked up): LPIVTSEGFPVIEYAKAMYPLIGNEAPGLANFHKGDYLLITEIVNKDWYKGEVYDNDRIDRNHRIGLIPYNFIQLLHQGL

Pin3, Q06449 = biological target: T4, Pin3, Q06449; conditions: median of control spots 2171
T4 sequence (Q06449 53-122, looked up): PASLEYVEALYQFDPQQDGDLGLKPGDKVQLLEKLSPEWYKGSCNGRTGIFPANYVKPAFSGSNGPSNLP

Lsb4, P32793 = biological target: T5, Lsb4, P32793; conditions: median of control spots 397
T5 sequence (P32793 402-468, looked up): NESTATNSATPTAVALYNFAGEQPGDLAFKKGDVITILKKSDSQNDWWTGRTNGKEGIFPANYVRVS

Bzz1-1, P38822 = biological target: T6, Bzz1-1, P38822; conditions: median of control spots 4446
T6 sequence (P38822 478-572, looked up): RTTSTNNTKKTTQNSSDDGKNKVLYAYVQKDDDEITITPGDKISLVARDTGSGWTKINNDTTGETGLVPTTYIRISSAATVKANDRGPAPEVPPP

GST = conditions: median of control spots 978
Lsb1, P53281 = biological target: T7, Lsb1, P53281; conditions: median of control spots 388
T7 sequence (P53281 45-122, looked up): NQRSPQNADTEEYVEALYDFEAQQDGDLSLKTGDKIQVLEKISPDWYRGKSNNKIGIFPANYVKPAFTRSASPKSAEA

Bem1-1, P29366 = conditions: median of control spots 4282
Chain of Bem1-1, P29366 (P29366 55-141): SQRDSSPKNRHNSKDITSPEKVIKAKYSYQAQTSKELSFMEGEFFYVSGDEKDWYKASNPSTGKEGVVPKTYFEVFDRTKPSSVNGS

Abp1, P15891 = biological target: T8, Abp1, P15891; conditions: median of control spots 935
T8 sequence (P15891 535-592, looked up): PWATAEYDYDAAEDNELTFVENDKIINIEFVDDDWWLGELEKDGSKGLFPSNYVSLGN

Fus1, P11710 = biological target: T9, Fus1, P11710; conditions: median of control spots 1200
T9 sequence (P11710 432-512, looked up): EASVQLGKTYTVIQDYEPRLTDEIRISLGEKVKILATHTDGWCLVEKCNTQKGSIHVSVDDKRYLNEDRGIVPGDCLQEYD

Nbp2, Q12163 = biological target: T10, Nbp2, Q12163; conditions: median of control spots 357
T10 sequence (Q12163 103-180, looked up): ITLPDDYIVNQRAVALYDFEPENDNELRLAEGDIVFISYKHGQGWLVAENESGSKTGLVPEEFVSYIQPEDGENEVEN

Sla1-2, P32790 = biological target: T11, Sla1-2, P32790; conditions: median of control spots 712
T11 sequence (P32790 60-140, looked up): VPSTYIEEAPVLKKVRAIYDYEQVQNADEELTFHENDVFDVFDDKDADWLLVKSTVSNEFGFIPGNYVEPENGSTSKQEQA

Sla1-3, P32790 = biological target: T12, Sla1-3, P32790; conditions: median of control spots 5475
T12 sequence (P32790 344-424, looked up): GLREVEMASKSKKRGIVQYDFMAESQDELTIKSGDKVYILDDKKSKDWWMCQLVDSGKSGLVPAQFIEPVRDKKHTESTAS

Bbc1, P47068 = biological target: T13, Bbc1, P47068; conditions: median of control spots 796
T13 sequence (P47068 1-78, looked up): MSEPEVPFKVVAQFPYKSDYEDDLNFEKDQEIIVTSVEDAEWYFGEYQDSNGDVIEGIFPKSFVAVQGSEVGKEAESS

Hse1, P38753 = biological target: T14, Hse1, P38753; conditions: median of control spots 1727
T14 sequence (P38753 208-285, looked up): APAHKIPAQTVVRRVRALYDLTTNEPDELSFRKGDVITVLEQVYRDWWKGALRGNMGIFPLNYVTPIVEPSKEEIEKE

Boi1, P38041 = biological target: T15, Boi1, P38041; conditions: median of control spots 1162
T15 sequence (P38041 1-86, looked up): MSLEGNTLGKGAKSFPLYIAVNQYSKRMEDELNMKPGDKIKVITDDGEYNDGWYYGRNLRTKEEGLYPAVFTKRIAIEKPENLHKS

Myo3, P36006 = conditions: median of control spots 468
Cdc25, P04821 = biological target: T16, Cdc25, P04821; conditions: median of control spots 969
T16 sequence (P04821 50-136, looked up): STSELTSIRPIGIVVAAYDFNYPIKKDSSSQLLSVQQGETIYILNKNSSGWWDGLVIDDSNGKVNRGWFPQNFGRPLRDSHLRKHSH

Cyk3, Q07533 = biological target: T17, Cyk3, Q07533; conditions: median of control spots 1451
T17 sequence (Q07533 1-83, looked up): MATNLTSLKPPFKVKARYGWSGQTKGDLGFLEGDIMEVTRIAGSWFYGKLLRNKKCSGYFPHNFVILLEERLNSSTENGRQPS

Rvs167, P39743 = conditions: median of control spots 2707
Chain of Rvs167, P39743 (P39743 419-482): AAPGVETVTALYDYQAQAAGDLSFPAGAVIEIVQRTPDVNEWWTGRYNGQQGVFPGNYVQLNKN

Bzz1-2, P38822 = biological target: T18, Bzz1-2, P38822; conditions: median of control spots 4538
T18 sequence (P38822 568-633, looked up): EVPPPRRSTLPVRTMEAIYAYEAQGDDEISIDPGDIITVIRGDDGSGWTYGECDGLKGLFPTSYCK

Pex13, P80667 = biological target: T19, Pex13, P80667; conditions: median of control spots 1341
T19 sequence (P80667 295-386, looked up): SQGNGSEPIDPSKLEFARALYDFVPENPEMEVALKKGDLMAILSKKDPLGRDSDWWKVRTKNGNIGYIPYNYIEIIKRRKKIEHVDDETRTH

Myo5, Q04439 = biological target: T20, Myo5, Q04439; conditions: median of control spots 471
T20 sequence (Q04439 1072-1160, looked up): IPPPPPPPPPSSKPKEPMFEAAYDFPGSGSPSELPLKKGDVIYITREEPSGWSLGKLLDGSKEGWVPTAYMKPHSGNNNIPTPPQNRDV

Lsb3, P43603 = biological target: T21, Lsb3, P43603; conditions: median of control spots 406
T21 sequence (P43603 385-451, looked up): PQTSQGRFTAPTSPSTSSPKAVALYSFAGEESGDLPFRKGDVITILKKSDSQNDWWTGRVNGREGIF

Chain of Bem1-2, P29366 (P29366 139-227): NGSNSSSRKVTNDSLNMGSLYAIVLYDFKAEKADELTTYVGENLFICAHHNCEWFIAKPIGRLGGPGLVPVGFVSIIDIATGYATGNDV

B1: unnamed (peptide)
chain: KTRLRPAFIQQLWSS
SPOT intensity (Bem1-2, P29366): 0 | SPOT intensity (Bud14, P27637): 4 | SPOT intensity (Boi2, P39969): 0 | SPOT intensity (Sho1, P40073): 22 | SPOT intensity (Hof1, Q05080): 0 | SPOT intensity (Pin3, Q06449): 15 | SPOT intensity (Lsb4, P32793): 0 | SPOT intensity (Bzz1-1, P38822): 0 | SPOT intensity (GST): 0 | SPOT intensity (Lsb1, P53281): 0 | SPOT intensity (Bem1-1, P29366): 1 | SPOT intensity (Abp1, P15891): 31 | SPOT intensity (Fus1, P11710): 7 | SPOT intensity (Nbp2, Q12163): 4 | SPOT intensity (Sla1-2, P32790): 0 | SPOT intensity (Sla1-3, P32790): 33 | SPOT intensity (Bbc1, P47068): 17 | SPOT intensity (Hse1, P38753): 5 | SPOT intensity (Boi1, P38041): 1 | SPOT intensity (Myo3, P36006): 0 | SPOT intensity (Cdc25, P04821): 13 | SPOT intensity (Cyk3, Q07533): 3 | SPOT intensity (Rvs167, P39743): 1 | SPOT intensity (Bzz1-2, P38822): 0 | SPOT intensity (Pex13, P80667): 7 | SPOT intensity (Myo5, Q04439): 0 | SPOT intensity (Lsb3, P43603): 0

B2: unnamed (peptide)
chain: LKQRFFLMFPKSIIW
SPOT intensity (Bem1-2, P29366): 1 | SPOT intensity (Bud14, P27637): 27 | SPOT intensity (Boi2, P39969): 1 | SPOT intensity (Sho1, P40073): 53 | SPOT intensity (Hof1, Q05080): 5 | SPOT intensity (Pin3, Q06449): 54 | SPOT intensity (Lsb4, P32793): 0 | SPOT intensity (Bzz1-1, P38822): 0 | SPOT intensity (GST): 0 | SPOT intensity (Lsb1, P53281): 7 | SPOT intensity (Bem1-1, P29366): 0 | SPOT intensity (Abp1, P15891): 63 | SPOT intensity (Fus1, P11710): 38 | SPOT intensity (Nbp2, Q12163): 9 | SPOT intensity (Sla1-2, P32790): 0 | SPOT intensity (Sla1-3, P32790): 17 | SPOT intensity (Bbc1, P47068): 23 | SPOT intensity (Hse1, P38753): 8 | SPOT intensity (Boi1, P38041): 2 | SPOT intensity (Myo3, P36006): 12 | SPOT intensity (Cdc25, P04821): 25 | SPOT intensity (Cyk3, Q07533): 4 | SPOT intensity (Rvs167, P39743): 0 | SPOT intensity (Bzz1-2, P38822): 0 | SPOT intensity (Pex13, P80667): 21 | SPOT intensity (Myo5, Q04439): 0 | SPOT intensity (Lsb3, P43603): 0

B3: unnamed (peptide)
chain: HHNRRKPLEVYFKAT
SPOT intensity (Bem1-2, P29366): 6 | SPOT intensity (Bud14, P27637): 10 | SPOT intensity (Boi2, P39969): 2 | SPOT intensity (Sho1, P40073): 43 | SPOT intensity (Hof1, Q05080): 12 | SPOT intensity (Pin3, Q06449): 20 | SPOT intensity (Lsb4, P32793): 1 | SPOT intensity (Bzz1-1, P38822): 3 | SPOT intensity (GST): 1 | SPOT intensity (Lsb1, P53281): 0 | SPOT intensity (Bem1-1, P29366): 43 | SPOT intensity (Abp1, P15891): 10 | SPOT intensity (Fus1, P11710): 565 | SPOT intensity (Nbp2, Q12163): 0 | SPOT intensity (Sla1-2, P32790): 0 | SPOT intensity (Sla1-3, P32790): 14 | SPOT intensity (Bbc1, P47068): 7 | SPOT intensity (Hse1, P38753): 6 | SPOT intensity (Boi1, P38041): 0 | SPOT intensity (Myo3, P36006): 3 | SPOT intensity (Cdc25, P04821): 10 | SPOT intensity (Cyk3, Q07533): 3 | SPOT intensity (Rvs167, P39743): 2 | SPOT intensity (Bzz1-2, P38822): 0 | SPOT intensity (Pex13, P80667): 16 | SPOT intensity (Myo5, Q04439): 1 | SPOT intensity (Lsb3, P43603): 0

B4: unnamed (peptide)
chain: SHRLWLYAAPKRPKT
SPOT intensity (Bem1-2, P29366): 0 | SPOT intensity (Bud14, P27637): 5 | SPOT intensity (Boi2, P39969): 0 | SPOT intensity (Sho1, P40073): 39 | SPOT intensity (Hof1, Q05080): 5 | SPOT intensity (Pin3, Q06449): 13 | SPOT intensity (Lsb4, P32793): 0 | SPOT intensity (Bzz1-1, P38822): 2 | SPOT intensity (GST): 0 | SPOT intensity (Lsb1, P53281): 0 | SPOT intensity (Bem1-1, P29366): 0 | SPOT intensity (Abp1, P15891): 47 | SPOT intensity (Fus1, P11710): 20 | SPOT intensity (Nbp2, Q12163): 1 | SPOT intensity (Sla1-2, P32790): 3 | SPOT intensity (Sla1-3, P32790): 16 | SPOT intensity (Bbc1, P47068): 34 | SPOT intensity (Hse1, P38753): 8 | SPOT intensity (Boi1, P38041): 1 | SPOT intensity (Myo3, P36006): 6 | SPOT intensity (Cdc25, P04821): 5 | SPOT intensity (Cyk3, Q07533): 4 | SPOT intensity (Rvs167, P39743): 0 | SPOT intensity (Bzz1-2, P38822): 0 | SPOT intensity (Pex13, P80667): 8 | SPOT intensity (Myo5, Q04439): 0 | SPOT intensity (Lsb3, P43603): 5
